In publication PMC3876282:

Target: AvrPtoB BAK1-interacting domain, 250-359 (UniProt Q8RSY1)
Test: gel filtration co-migration, Coomassie SDS-PAGE
Details: reference: wild-type BAK1-KD

| Substance | binding against the reference (sites T449) | binding against the reference (sites T450) |
| --- | --- | --- |
| BAK1 kinase domain, 250-591 (from UniProt Q94F62) BAK1-KD T449A | lost | – |
| BAK1 kinase domain, 250-591 (from UniProt Q94F62) BAK1-KD T450A | – | lost |
